In data set [1] the target is wild type human growth hormone, P01241.
Sequence of wild type human growth hormone, P01241 (P01241 27-217): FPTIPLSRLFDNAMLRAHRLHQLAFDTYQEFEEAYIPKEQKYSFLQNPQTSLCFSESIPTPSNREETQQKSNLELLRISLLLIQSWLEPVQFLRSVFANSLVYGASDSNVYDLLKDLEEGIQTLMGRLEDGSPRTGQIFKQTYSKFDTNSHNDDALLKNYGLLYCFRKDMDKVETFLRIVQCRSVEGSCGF

Sequence of hGHQ40N, P01241 (P01241 27-217 Q66N): as the sequence (P01241 27-217) above, with Q40N counted along it
Sequence of hGHQ141N, P01241 (P01241 27-217 Q167N): as the sequence (P01241 27-217) above, with Q141N counted along it

B1: Mature mTGase from Streptoverticillium ladakanum (protein)
chain: DSDERVTPPAEPLDRMPDPYRPSYGRAETIVNNYIRKWQQVYSHRDGRKQQMTEEQREWLSYGCVGVTWVNSGQYPTNRLAFAFFDEDKYKNELKNGRPRSGETRAEFEGRVAKDSFDEAKGFQRARDVASVMNKALENAHDEGAYLDNLKKELANGNDALRNEDARSPFYSALRNTPSFKDRNGGNHDPSKMKAVIYSKHFWSGQDRSGSSDKRKYGDPEAFRPDRGTGLVDMSRDRNIPRSPTSPGESFVNFDYGWFGAQTEADADKTVWTHGNHYHAPNGSLGAMHVYESKFRNWSDGYSDFDRGAYVVTFVPKSWNTAPDKVKQGWP
As for B1, in the data set with hGHQ141N, P01241, the Activity (RFU/sec/µg), dansyl-cadaverine fluorescence kinetics was 0.63 RFU/sec/µg; the “HPLC peak area of product-Q40 (FIG. 3, bottom)” value is listed as “The first peak (19.2 min, area 127) is product-Q40”; the product-Q40 after 30 minutes, FPLC areas normalized to 100 (normalized to 100) was 10. Moreover, in the data set with hGHQ40N, P01241, the Activity towards hGHQ40N (RFU/sec/µg), dansyl-cadaverine fluorescence kinetics turned out to be 3.55 RFU/sec/µg; the “HPLC peak area of product-Q141 (FIG. 3, top)” value is given as “The first peak (26.5 min, area 1238) is product-Q141”; the product-Q141 after 30 minutes, FPLC areas normalized to 100 (normalized to 100) came out at 77.

B2: mTGase from Streptomyces mobaraensis (protein)
chain: DSDDRVTPPAEPLDRMPDPYRPSYGRAETVVNNYIRKWQQVYSHRDGRKQQMTEEQREWLSYGCVGVTWVNSGQYPTNRLAFASFDEDRFKNELKNGRPRSGETRAEFEGRVAKESFDEEKGFQRAREVASVMNRALENAHDESAYLDNLKKELANGNDALRNEDARSPFYSALRNTPSFKERNGGNHDPSRMKAVIYSKHFWSGQDRSSSADKRKYGDPDAFRPAPGTGLVDMSRDRNIPRSPTSPGEGFVNFDYGWFGAQTEADADKTVWTHGNHYHAPNGSLGAMHVYESKFRNWSEGYSDFDRGAYVITFIPKSWNTAPDKVKQGWP
For the protein B2, in the data set with hGHQ141N, P01241, the Activity (RFU/sec/µg), dansyl-cadaverine fluorescence kinetics was found to be 0.98 RFU/sec/µg; the “HPLC peak area of product-Q40 (FIG. 4, bottom)” value is “The first peak (19.5 min, area 296) is product-Q40”; the product-Q40 after 30 minutes, FPLC areas normalized to 100 (normalized to 100) turned out to be 19. In addition, in the data set with hGHQ40N, P01241, the Activity towards hGHQ40N (RFU/sec/µg), dansyl-cadaverine fluorescence kinetics was 3.35 RFU/sec/µg; the “HPLC peak area of product-Q141 (FIG. 4, top)” value is “The first peak (26.9 min, area 1283) is product-Q141”; the product-Q141 after 30 minutes, FPLC areas normalized to 100 (normalized to 100) turned out to be 71.

B3: Met-mTGase from S. ladakanum (protein)
chain: MDSDERVTPPAEPLDRMPDPYRPSYGRAETIVNNYIRKWQQVYSHRDGRKQQMTEEQREWLSYGCVGVTWVNSGQYPTNRLAFAFFDEDKYKNELKNGRPRSGETRAEFEGRVAKDSFDEAKGFQRARDVASVMNKALENAHDEGAYLDNLKKELANGNDALRNEDARSPFYSALRNTPSFKDRNGGNHDPSKMKAVIYSKHFWSGQDRSGSSDKRKYGDPEAFRPDRGTGLVDMSRDRNIPRSPTSPGESFVNFDYGWFGAQTEADADKTVWTHGNHYHAPNGSLGAMHVYESKFRNWSDGYSDFDRGAYVVTFVPKSWNTAPDKVKQGWP
Protein B3 registered an Activity (RFU/sec/µg), dansyl-cadaverine fluorescence kinetics with hGHQ141N, P01241 of 0.8 RFU/sec/µg. In the data set with hGHQ40N, P01241, this protein yielded an Activity towards hGHQ40N (RFU/sec/µg), dansyl-cadaverine fluorescence kinetics of 4.74 RFU/sec/µg.

B4: Met-mTGase from S. mobaraensis (protein)
chain: MDSDDRVTPPAEPLDRMPDPYRPSYGRAETVVNNYIRKWQQVYSHRDGRKQQMTEEQREWLSYGCVGVTWVNSGQYPTNRLAFASFDEDRFKNELKNGRPRSGETRAEFEGRVAKESFDEEKGFQRAREVASVMNRALENAHDESAYLDNLKKELANGNDALRNEDARSPFYSALRNTPSFKERNGGNHDPSRMKAVIYSKHFWSGQDRSSSADKRKYGDPDAFRPAPGTGLVDMSRDRNIPRSPTSPGEGFVNFDYGWFGAQTEADADKTVWTHGNHYHAPNGSLGAMHVYESKFRNWSEGYSDFDRGAYVITFIPKSWNTAPDKVKQGWP
For B4, the Activity (RFU/sec/µg), dansyl-cadaverine fluorescence kinetics with hGHQ141N, P01241 was 1.24 RFU/sec/µg. The Activity towards hGHQ40N (RFU/sec/µg), dansyl-cadaverine fluorescence kinetics in the data set with hGHQ40N, P01241 was found to be 5.44 RFU/sec/µg.

B5: AlaPro-mTGase from S. mobaraensis (protein)
chain: APDSDDRVTPPAEPLDRMPDPYRPSYGRAETVVNNYIRKWQQVYSHRDGRKQQMTEEQREWLSYGCVGVTWVNSGQYPTNRLAFASFDEDRFKNELKNGRPRSGETRAEFEGRVAKESFDEEKGFQRAREVASVMNRALENAHDESAYLDNLKKELANGNDALRNEDARSPFYSALRNTPSFKERNGGNHDPSRMKAVIYSKHFWSGQDRSSSADKRKYGDPDAFRPAPGTGLVDMSRDRNIPRSPTSPGEGFVNFDYGWFGAQTEADADKTVWTHGNHYHAPNGSLGAMHVYESKFRNWSEGYSDFDRGAYVITFIPKSWNTAPDKVKQGWP
On to B5, for which, in data set [1], the “conversion rate by CE (FIG. 2B); reaction time 30 minutes” value is given as “conversion rate=32%”; the hGH conv. rate (%) by CE, reference of the separate experiment; reaction time 45 m, enzyme 4.6 µg/ml was 39%; the hGH conv. rate (%) by CE; reaction time 30 m, enzyme 9.6 µg/ml was 33%. In addition, the Activity (RFU/sec/µg), dansyl-cadaverine fluorescence kinetics with hGHQ141N, P01241 turned out to be 1.56 RFU/sec/µg. For the same protein, the Activity towards hGHQ40N (RFU/sec/µg), dansyl-cadaverine fluorescence kinetics in the data set with hGHQ40N, P01241 amounted to 5.05 RFU/sec/µg.

B6: GlyPro-mTGase from S. mobaraensis (protein)
chain: GPDSDDRVTPPAEPLDRMPDPYRPSYGRAETVVNNYIRKWQQVYSHRDGRKQQMTEEQREWLSYGCVGVTWVNSGQYPTNRLAFASFDEDRFKNELKNGRPRSGETRAEFEGRVAKESFDEEKGFQRAREVASVMNRALENAHDESAYLDNLKKELANGNDALRNEDARSPFYSALRNTPSFKERNGGNHDPSRMKAVIYSKHFWSGQDRSSSADKRKYGDPDAFRPAPGTGLVDMSRDRNIPRSPTSPGEGFVNFDYGWFGAQTEADADKTVWTHGNHYHAPNGSLGAMHVYESKFRNWSEGYSDFDRGAYVITFIPKSWNTAPDKVKQGWP
The protein B6 had an Activity (RFU/sec/µg), dansyl-cadaverine fluorescence kinetics with hGHQ141N, P01241 of 1.13 RFU/sec/µg. Moreover, in the data set with hGHQ40N, P01241, the Activity towards hGHQ40N (RFU/sec/µg), dansyl-cadaverine fluorescence kinetics was found to be 4.28 RFU/sec/µg.

B7: AlaPro-mTGase from S. ladakanum (protein)
chain: APDSDERVTPPAEPLDRMPDPYRPSYGRAETIVNNYIRKWQQVYSHRDGRKQQMTEEQREWLSYGCVGVTWVNSGQYPTNRLAFAFFDEDKYKNELKNGRPRSGETRAEFEGRVAKDSFDEAKGFQRARDVASVMNKALENAHDEGAYLDNLKKELANGNDALRNEDARSPFYSALRNTPSFKDRNGGNHDPSKMKAVIYSKHFWSGQDRSGSSDKRKYGDPEAFRPDRGTGLVDMSRDRNIPRSPTSPGESFVNFDYGWFGAQTEADADKTVWTHGNHYHAPNGSLGAMHVYESKFRNWSDGYSDFDRGAYVVTFVPKSWNTAPDKVKQGWP
On to B7, for which the Activity (RFU/sec/µg), dansyl-cadaverine fluorescence kinetics in the data set with hGHQ141N, P01241 stood at 1.02 RFU/sec/µg. Besides, the Activity towards hGHQ40N (RFU/sec/µg), dansyl-cadaverine fluorescence kinetics with hGHQ40N, P01241 was 6.91 RFU/sec/µg.

B8: GlyPro-mTGase_Y75F from S. ladakanum (protein)
chain: GPDSDERVTPPAEPLDRMPDPYRPSYGRAETIVNNYIRKWQQVYSHRDGRKQQMTEEQREWLSYGCVGVTWVNSGQFPTNRLAFAFFDEDKYKNELKNGRPRSGETRAEFEGRVAKDSFDEAKGFQRARDVASVMNKALENAHDEGAYLDNLKKELANGNDALRNEDARSPFYSALRNTPSFKDRNGGNHDPSKMKAVIYSKHFWSGQDRSGSSDKRKYGDPEAFRPDRGTGLVDMSRDRNIPRSPTSPGESFVNFDYGWFGAQTEADADKTVWTHGNHYHAPNGSLGAMHVYESKFRNWSDGYSDFDRGAYVVTFVPKSWNTAPDKVKQGWP
On to B8, for which, in data set [1], the hGH conv. rate (%) by CE; reaction time 60 m, enzyme 12.9 µg/ml came to 41% and the “hGH conversion rate by CE (FIG. 2E); reaction time 75 m” value was “hGH conversion rate=33%”.

B9: GlyPro-mTGase_Y62H_Y75N from S. ladakanum (protein)
chain: GPDSDERVTPPAEPLDRMPDPYRPSYGRAETIVNNYIRKWQQVYSHRDGRKQQMTEEQREWLSHGCVGVTWVNSGQNPTNRLAFAFFDEDKYKNELKNGRPRSGETRAEFEGRVAKDSFDEAKGFQRARDVASVMNKALENAHDEGAYLDNLKKELANGNDALRNEDARSPFYSALRNTPSFKDRNGGNHDPSKMKAVIYSKHFWSGQDRSGSSDKRKYGDPEAFRPDRGTGLVDMSRDRNIPRSPTSPGESFVNFDYGWFGAQTEADADKTVWTHGNHYHAPNGSLGAMHVYESKFRNWSDGYSDFDRGAYVVTFVPKSWNTAPDKVKQGWP
B9 had a hGH conv. rate (%) by CE; reaction time 75 m, enzyme 34.5 µg/ml in data set [1] of 38%.

B10: GlyPro-mTGase_Y62H_Y75F from S. ladakanum (protein)
chain: GPDSDERVTPPAEPLDRMPDPYRPSYGRAETIVNNYIRKWQQVYSHRDGRKQQMTEEQREWLSHGCVGVTWVNSGQFPTNRLAFAFFDEDKYKNELKNGRPRSGETRAEFEGRVAKDSFDEAKGFQRARDVASVMNKALENAHDEGAYLDNLKKELANGNDALRNEDARSPFYSALRNTPSFKDRNGGNHDPSKMKAVIYSKHFWSGQDRSGSSDKRKYGDPEAFRPDRGTGLVDMSRDRNIPRSPTSPGESFVNFDYGWFGAQTEADADKTVWTHGNHYHAPNGSLGAMHVYESKFRNWSDGYSDFDRGAYVVTFVPKSWNTAPDKVTQGWP
Turning to B10, in data set [1], the RS (relative selectivity against AlaPro-mTGase from S. mobaraensis), separate experiment was 7.6; the Selectivity (Q141/Q40) by CE, separate experiment; reaction time 60 m, enzyme 8.8 µg/ml stood at 76.5; the hGH conv. rate (%) by CE, separate experiment; reaction time 60 m, enzyme 8.8 µg/ml was 38.1%; the hGH conv. rate (%) by CE; reaction time 120 m, enzyme 7 µg/ml worked out at 49.4%.

B11: GlyPro-mTGase_Y75N from S. ladakanum (protein)
chain: GPDSDERVTPPAEPLDRMPDPYRPSYGRAETIVNNYIRKWQQVYSHRDGRKQQMTEEQREWLSYGCVGVTWVNSGQNPTNRLAFAFFDEDKYKNELKNGRPRSGETRAEFEGRVAKDSFDEAKGFQRARDVASVMNKALENAHDEGAYLDNLKKELANGNDALRNEDARSPFYSALRNTPSFKDRNGGNHDPSKMKAVIYSKHFWSGQDRSGSSDKRKYGDPEAFRPDRGTGLVDMSRDRNIPRSPTSPGESFVNFDYGWFGAQTEADADKTVWTHGNHYHAPNGSLGAMHVYESKFRNWSDGYSDFDRGAYVVTFVPKSWNTAPDKVKQGWP
As for B11, in data set [1], the hGH conv. rate (%) by CE; reaction time 120 m, enzyme 6.5 µg/ml was 44% and the “hGH conversion rate by CE (FIG. 2F); reaction time 90 m” value is on record as “hGH conversion rate=50%”.

B12: GlyPro-mTGase from S. ladakanum (protein)
chain: GPDSDERVTPPAEPLDRMPDPYRPSYGRAETIVNNYIRKWQQVYSHRDGRKQQMTEEQREWLSYGCVGVTWVNSGQYPTNRLAFAFFDEDKYKNELKNGRPRSGETRAEFEGRVAKDSFDEAKGFQRARDVASVMNKALENAHDEGAYLDNLKKELANGNDALRNEDARSPFYSALRNTPSFKDRNGGNHDPSKMKAVIYSKHFWSGQDRSGSSDKRKYGDPEAFRPDRGTGLVDMSRDRNIPRSPTSPGESFVNFDYGWFGAQTEADADKTVWTHGNHYHAPNGSLGAMHVYESKFRNWSDGYSDFDRGAYVVTFVPKSWNTAPDKVKQGWP
Consider B12, for which, in data set [1], the hGH conv. rate (%) by CE; reaction time 15 m, enzyme 16 µg/ml amounted to 55%. Also, in the data set with hGHQ141N, P01241, the Activity (RFU/sec/µg), dansyl-cadaverine fluorescence kinetics turned out to be 0.48 RFU/sec/µg. In the data set with hGHQ40N, P01241, this protein returned an Activity towards hGHQ40N (RFU/sec/µg), dansyl-cadaverine fluorescence kinetics of 4.25 RFU/sec/µg.

Values taken from patent US20100099610.
